Results: the supplement of paper PMC10126150
± gives the standard deviation of the averaged measurements.

System: ATP
Test: switch fluorescence ratio, 500 uM ATP over buffer (Cy3 cluster intensity, sum of 5 cycles each) (fold (ratio)); higher = stronger signal-on switching upon ATP binding; sequences stand for … in TCGTCGGCAGCGTCAGATGTGTATAAGAGACAGTTTTTTTTTTTTTTTTTTTTTTTTT…TC
Conditions: aptamer strand: ATP DNA aptamer (quencher-CACCTGGGGGAGTATTGCGGAGGAAGG + anchor), 100 nM annealed; ATP concentration: 500 uM
How it was run: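 Per cluster, summed Cy3 intensity from the target cycles was divided by that from the buffer cycles to give the fluorescence ratio, then averaged per switch-domain sequence. Clusters outside 100-1000 RFU were excluded. The Cy3-labelled switching-strand clusters, on a modified Illumina MiSeq flow-cell, were annealed to 100 nM quencher-labelled ATP aptamer and imaged in selection buffer, then after 15 min with 500 uM ATP at 22 °C, for five cycles with NaOH stripping and re-annealing between them.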
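Also: ATP exposure 15 min at 22 °C before imaging.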

Sequence | switch fluorescence ratio
AGAAGGGTT | 1.016 ± 0.0044
TTAAAAGTTT | 0.994 ± 0.043
CTTCGGGGTT | 1.03 ± 0.035
TGATACCATG | 0.997 ± 0.018
GGTTTCAATA | 1.0088 ± 0.00023
TGGGGGG | 1.016 ± 0.0078
TTTTTAAAGT | 0.993 ± 0.026
GGTCGCCTCA | 0.9687 ± 0.0086
TATACTGGGG | 1.03 ± 0.059
GATTCTATAG | 0.988 ± 0.036
CGTGAAGCGT | 0.998 ± 0.039
CCGACATGGT | 1.27 ± 0.11
TTCGGGATAG | 1.07 ± 0.1
CCTAGTTGAA | 1.03 ± 0.015
TTATCATACG | 1.03 ± 0.024
CAGGTTGGAG | 1.15 ± 0.24
TGAAATAGGT | 0.99 ± 0.036
GATTGGCGCG | 1.006 ± 0.0031
TATGTTGTTT | 1.04 ± 0.023
GGTTTTGTGG | 1.01 ± 0.03
AAGCCCGAGG | 0.981 ± 0.02
TCTGGTTGGA | 1.04 ± 0.025
CGCGGGGCGC | 1.03 ± 0.028

Sequence | switch fluorescence ratio
CGGAATGGGG | 1.02 ± 0.015
TTCCTACAAG | 1.06 ± 0.014
CGATTCGTCT | 1.05 ± 0.05
ATTGGGACAG | 0.994 ± 0.031
CTGTGCTGT | 1.005 ± 0.0062
TTTGCCCTGG | 1.1 ± 0.08
AGGAGTATGA | 1.03 ± 0.029
CGTGATTACT | 1.17 ± 0.11
TTTTTGACAC | 1.26 ± 0.38
CGTCTGGGGG | 1.01 ± 0.021
AAAGGATCGG | 0.9923 ± 0.0056
TATTTTCGGG | 1.011 ± 0.0078
AAGTCCCAGC | 0.995 ± 0.048
GCTTGGGGAT | 1.01 ± 0.033
CTTTGTGGGG | 1.01 ± 0.029
GCGTTGTGGA | 1.04 ± 0.02
GATTGACGGC | 1 ± 0.045
GATGTTAGGT | 0.996 ± 0.023
GAGAGATGGG | 0.988 ± 0.018
CGTATTAAGC | 0.955 ± 0.015
CTCGGCGCTT | 1.05 ± 0.02
GACGGACAGT | 1.13 ± 0.076
AGCGGGTTTC | 1.02 ± 0.015

Sequence | switch fluorescence ratio
CGTATTATTG | 1.01 ± 0.02
AGGGTGCTGT | 1.02 ± 0.016
GGGCGAGCTC | 0.9982 ± 0.0061
CGTCCGAAGG | 1.03 ± 0.041
CAGAAATATT | 1.01 ± 0.075
TTATTGGGTC | 1.002 ± 0.01
AAGGAATAGT | 1.01 ± 0.026
TGGGATCGCC | 1.02 ± 0.028
ATTAACTTCG | 0.983 ± 0.013
GCATTTTTAC | 1.19 ± 0.023
TCATTTTGAA | 1.01 ± 0.0012
GTCGGGGGGG | 0.999 ± 0.031
TAGTTTTTAT | 1.02 ± 0.014
CGTCCTGGGG | 1.12 ± 0.048
ACCGGAGGGG | 1.17 ± 0.26
GTGCTGAATG | 1.02 ± 0.016
GTTAGCGCTT | 0.974 ± 0.025
GGTAATAGGG | 0.996 ± 0.036
TCGGAAGGAC | 1.141 ± 0.011
AGTTCCGTTG | 1.028 ± 0.0097
GTCTGAAGGG | 1.0152 ± 0.0004
CGTGTGGAAA | 1.02 ± 0.018
TTTTGAAGTG | 1.02 ± 0.034

Sequence | switch fluorescence ratio
TTGTGGGAAG | 0.976 ± 0.034
TCTAAATGTT | 0.985 ± 0.03
TGAAGTATGG | 0.9517 ± 0.0024
CAGTTTAAGG | 1.01 ± 0.024
GAAGTAGCGA | 1.05 ± 0.015
TCTCAGTCAC | 1.08 ± 0.018
AGCATTTTTC | 1.02 ± 0.028
TTTAATCAGG | 1.04 ± 0.025
GATATCAACG | 1 ± 0.047
GTTGGCCCGG | 0.997 ± 0.022
ATGTGTATGG | 0.998 ± 0.018
TTCGGCCCGA | 1.01 ± 0.039
CTGTTGGGGT | 0.988 ± 0.017
TAAAGATAAG | 0.98 ± 0.024
ACGGGACGGC | 1.04 ± 0.14
TTATTGGTAA | 1.0091 ± 0.00034
AAAAGAATGT | 0.993 ± 0.021
ATGGTTTTAG | 0.993 ± 0.033
GGGATTCTTG | 1.01 ± 0.04
GTCGGTCTGG | 1 ± 0.098
TTTCAGAGTC | 1.01 ± 0.064
ACATAGGGGT | 1.01 ± 0.013
TTTTCGATTT | 1.42 ± 1

Sequence | switch fluorescence ratio
AACGAGGGGA | 0.9716 ± 0.0045
AAGTCCGGGG | 0.9698 ± 0.0013
AAATTTATAT | 1.02 ± 0.015
TTTATTTAAT | 1.03 ± 0.035
TGGGGTGGCT | 0.985 ± 0.015
ATTAGAAAAG | 0.991 ± 0.03
TCGACGATTC | 1.52 ± 0.14
CTGTCGTATG | 0.9749 ± 0.0082
CATCGCAAAG | 4.33 ± 0.46
AGCACGCTTT | 1.019 ± 0.0063
GTTTTGGGAC | 0.993 ± 0.027
AGAATGTGG | 1.21 ± 0.28
GCCCTTGGTT | 1.02 ± 0.074
CGCAAAGATT | 1.06 ± 0.024
GGGGTTCCGT | 1 ± 0.025
ATATTTATTG | 0.998 ± 0.04
AGATGTTCCG | 1.05 ± 0.018
TTGAGTGGGA | 0.989 ± 0.02
GTCGTCAAGT | 1.006 ± 0.0073
AAGGTTGTTT | 0.983 ± 0.03
GGGGTTTCTC | 1.02 ± 0.031
GAAGGGCGGA | 1.018 ± 0.0045
TTGGATTTTT | 0.992 ± 0.041

Sequence | switch fluorescence ratio
ACTGATGGTA | 1.02 ± 0.025
TCCAGGAGGG | 1.025 ± 0.0075
AAAACGAAAT | 1.02 ± 0.032
TCCAATTTGA | 0.998 ± 0.012
TTTATGTTAT | 1.1 ± 0.097
GCGAAGGCTT | 1.017 ± 0.0095
GAAAAACTGT | 1.06 ± 0.021
GGACTAGCTT | 1.03 ± 0.032
TGCCGAAAGT | 0.962 ± 0.033
GTGGGGCGCG | 1.02 ± 0.038
TCCCAACGGG | 1.011 ± 0.0036
GGCGAATGGG | 0.98 ± 0.041
AATATTTTTT | 1.01 ± 0.049
ATGGGGGGAC | 0.987 ± 0.027
TGATATGGGA | 1.01 ± 0.03
GCTTTCCGGC | 1.02 ± 0.078
ATTATTAAAT | 1.08 ± 0.18
GTTGCAGGTG | 2.06 ± 0.057
TGTTTATTTG | 0.965 ± 0.017
GGGGACGGGC | 1.04 ± 0.075
TTAAACGTTT | 1.02 ± 0.021
AGTTGAATTG | 0.994 ± 0.022
TTTAAGAATC | 0.994 ± 0.03

Sequence | switch fluorescence ratio
TATGGGGTTA | 0.981 ± 0.028
GGGATTTTGA | 0.999 ± 0.017
GAGATTGTGA | 0.992 ± 0.039
GGGTAAATGC | 1.01 ± 0.1
TGGCGAATTA | 0.978 ± 0.026
TTAGATTGGT | 0.99 ± 0.033
AGAAAAAAGT | 1.03 ± 0.12
GTTATTTTAA | 0.9846 ± 0.0027
TTGTCCTAGT | 1.008 ± 0.0012
AGGAGGGTAG | 1 ± 0.021
TATCAAAAGA | 1.03 ± 0.016
CGCGTATGTT | 0.985 ± 0.026
CTCGGCTGGT | 1.01 ± 0.019
TTTAAGTGAG | 0.981 ± 0.021
TTTGCTTGGT | 0.994 ± 0.03
AGGGAGTTCG | 0.977 ± 0.03
CTTGGGAATA | 1.01 ± 0.05
CTTCGTATCG | 1.04 ± 0.059
TTTCCCCAAT | 1.07 ± 0.063
